Reference: publication PMC4917244

Columns and labels:
[1] = biological target: T1, Ros1WOPR-His (Ustilago maydis (FB1?)) (UniProt A0A0D1BVT7); test: EMSA
T1 sequence: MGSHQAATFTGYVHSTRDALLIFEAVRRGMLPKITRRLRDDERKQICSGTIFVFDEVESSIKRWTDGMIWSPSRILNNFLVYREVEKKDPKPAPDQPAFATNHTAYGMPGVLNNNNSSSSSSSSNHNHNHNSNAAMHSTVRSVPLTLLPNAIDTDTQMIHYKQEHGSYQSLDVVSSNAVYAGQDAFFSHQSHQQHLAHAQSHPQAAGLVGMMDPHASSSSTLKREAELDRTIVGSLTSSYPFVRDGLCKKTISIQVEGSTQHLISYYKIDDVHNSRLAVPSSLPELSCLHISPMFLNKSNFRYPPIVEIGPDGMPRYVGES

[2] = biological target: T1, Ros1WOPR-His (Ustilago maydis (FB1?)); test: competition EMSA

Sequence	binding [1]	binding [2]
CGCCAGAGACAAGTACTGTTCCCAATTCGGAGCTTCGCCGTGAACCACGAATTCATGCATTTCCATATTGGCAAAATATTAAAAAATTGAGGGTTTTGGCGTTGGCCTTTTGAGAGTTTATTTTAGATTTAATTAAGTGATTATGAGGATGATTCTTTTTCTTCATCTTCCTGTAACCGTCACCTGCCACGCTTGCCTAGACGCAGCAGTATCCACTCCGTAGGCGTATGCTATTGT (double strand) [WT-probe (ros1 promoter)]	binds	–
CGCCAGAGACAAGTACTGTTCCCAATTCGGAGCTTCGCCGTGAACCACGAATTCATGCATTTCCATATTGGCAAAATATTAAAAAATTGAGGGTTTTGGCGTTGGCCTTTTGAGAGTTTATTTTAGATTTAATTAAGTGATTATGAGGATGATTCTTTTTCTTCATCTTCCTGTAACCGTCACCTGCCACGCTTGCCTAGACGCAGCAGTATCCACTCCGTAGGCGTATGCTATTGT (double strand) [WT-probe unlabeled competitor]	–	binds
